Assay results from patent US20110152173A1 (EMERGENT PRODUCT DEVELOPMENT SEATTLE, published 2011).

Experiments:
[1] = target: T1, recombinant human sIL-6R (human, UniProt P08887 20-358, limits assumed); assay: ELISA: Xceptor captured on anti-human IgG-Fc, sIL-6R added, detected with anti-IL-6R-biotin
T1 construct: Bought; also called human soluble IL6R
T1 sequence (looked up): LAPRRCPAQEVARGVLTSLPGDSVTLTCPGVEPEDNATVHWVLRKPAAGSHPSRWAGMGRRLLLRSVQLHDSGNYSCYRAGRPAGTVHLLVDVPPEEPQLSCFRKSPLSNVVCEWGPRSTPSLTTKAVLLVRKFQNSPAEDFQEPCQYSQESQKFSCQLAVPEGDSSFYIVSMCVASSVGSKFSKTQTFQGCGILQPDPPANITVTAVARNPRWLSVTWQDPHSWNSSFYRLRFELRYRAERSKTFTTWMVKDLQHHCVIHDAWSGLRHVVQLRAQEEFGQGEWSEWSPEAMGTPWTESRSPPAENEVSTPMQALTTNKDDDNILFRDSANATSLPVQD
Description: Added to each well of a 96-well plate was 100 μl goat anti-human IgG-Fc (ICN Pharmaceuticals, Costa Mesa, Calif.) from a 2 μg/ml solution in PBS, pH 7.2-7.4. The plates were covered, and incubated overnight at 4° C. After washing four times with PBS-T, 250 μl Blocking buffer (PBS-T with 3% BSA or 10% normal goat serum) was added to each well, the plate was covered, and incubated at room temperature for 2 hours (or at 4° C. overnight). […] After washing the plate five times with PBS-T, added in duplicate wells was 100 μl/well recombinant human sIL-6R(R&D Systems) from a […] solution in Working buffer, the plate was covered, and incubated at room temperature for about 1 to 2 hours. After washing the plate five times with PBS-T, added 100 μl/well anti-human IL-6R-biotin (R&D Systems) from a 100 ng/ml solution in Working buffer, the plate was covered, and incubated at room temperature for about 1 to 2 hours. After washing the plate five times with PBS-T, 100 μl per well horse radish peroxidase-conjugated streptavidin (Zymed, San Francisco, Calif.) diluted 1:4,000 in Working buffer was added, the plate was covered, and incubated at room temperature for 30 minutes. After washing the plate six times with PBS-T, 100 μl per well 3,3,5,5-tetramentylbenzidine (TMB) substrate solution (Pierce, Rockford, Ill.) was added for about 3 to 5 minutes and then the reaction was stopped with 50 μl Stop buffer (1N H₂SO₄) per well. The absorbance of each well was read at 450 nm.

[2] = target: T2, recombinant human TNF-α (human, UniProt P01375 77-233); assay: ELISA: Xceptor captured on anti-human IgG-Fc, rhTNF-α added, detected with anti-TNF-α-biotin
T2 construct: also called rhTNFα
Description: Added to each well of a 96-well plate was 100 μl goat anti-human IgG-Fc (ICN Pharmaceuticals, Costa Mesa, Calif.) from a 2 μg/ml solution in PBS, pH 7.2-7.4. The plate was covered, and incubated overnight at 4° C. After washing four times with PBS-T, 250 μl Blocking buffer was added to each well, the plate was covered, and incubated at room temperature for 2 hours (or at 4° C. overnight). […] After washing the plate five times with PBS-T, 100 μl per well horse radish peroxidase-conjugated streptavidin (Jackson ImmunoResearch, West Grove, Pa.) diluted 1:1,000 in Working buffer was added, the plate was covered, and incubated at room temperature for 30 minutes. After washing the plate six times with PBS-T, 100 μl per well 3,3,5,5-tetramentylbenzidine (TMB) substrate solution (Pierce, Rockford, Ill.) was added for about 3 to 5 minutes and then the reaction was stopped with 50 μl Stop buffer (1N H₂SO₄) per well. The absorbance of each well was read at 450 nm.

T2 sequence (P01375 77-233 limits assumed): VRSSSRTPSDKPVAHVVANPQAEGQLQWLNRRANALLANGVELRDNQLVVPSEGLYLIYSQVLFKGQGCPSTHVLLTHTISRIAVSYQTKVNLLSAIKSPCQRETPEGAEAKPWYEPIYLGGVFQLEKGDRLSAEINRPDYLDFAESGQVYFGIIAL

B1: TRU(XT6)-1058 (Fc fusion)
chain: LPAQVAFTPYAPEPGSTCRLREYYDQTAQMCCSKCSPGQHAKVFCTKTSDTVCDSCEDSTYTQLWNWVPECLSCGSRCSSDQVETQACTREQNRICTCRPGWYCALSKQEGCRLCAPLRKCRPGFGVARPGTETSDVVCKPCAPGTFSNTTSSTDICRPHQICNVVAIPGNASMDAVCTSTSPTRSMAPGAVHLPQPVSTRSQHTQPTPEPSTAPSTSFLLPMGPSPPAEGSTGDTGEPKSSDKTHTCPPCPAPEAAGAPSVFLFPPKPKDTLMISRTPEVTCVVVDVSHEDPEVKFNWYVDGVEVHNAKTKPREEQYNSTYRVVSVLTVLHQDWLNGKAYACAVSNKALPAPIEKTISKAKGQPREPQVYTLPPSRDELTKNQVSLTCLVKGFYPSDIAVEWESNGQPENNYKTTPPVLDSDGSFFLYSKLTVDKSRWQQGNVFSCSVMHEALHNHYTQKSLSLSPGQRHNNSSLNTRTQKARHSPNSEVQLLESGGGLVQPGGSLRLSCAASGFTFSMYTMHWVRQAPGKGLEWVSWISPSGGWTKYADSVKGRFTISRDNSKNTLYLQMNSLRAEDTAVYYCAVSPWGGPFDYWGQGTLVTVSSGGGGSGGGGSGGGGSQDIQMTQSPSTLSASVGDRVTITCRASQSISSWLAWYQQKPGKAPKLLIYKASTLESGVPSRFSAGGSGTEFTLTISSLQPDDFGTYYCQQYNSYSLTFGGGTKVEII
notes: not trimmed; also called Xceptor TNFRSF1B::anti-HIL6
Does B1 bind [1]?
Result: no binding

Does B1 bind [2]?
Result: binds

B2: TRU(X6T)-1019 (Fc fusion)
chain: EVQLLESGGGLVQPGGSLRLSCAASGFTFSWYLMHWVRQAPGKGLEWVSGIWPSGGHTLYADSVKGRFTISRDNSKNTLYLQMNSLRAEDTAVYYCAREPLLWFGELSYNWFDPWGQGTLVTVSSGGGGSGGGGSGGGGSQDIQMTQSPSSVSASVGDRVTITCRASQGISSWLAWYQQKPGKAPKLLIYAASSLQSGVPSRFSGSGSGTDFTLTISSLQPEDFATYYCQQANSFPLTFGGGTKVEIKTGEPKSSDKTHTCPPCPAPEAAGAPSVFLFPPKPKDTLMISRTPEVTCVVVDVSHEDPEVKFNWYVDGVEVHNAKTKPREEQYNSTYRVVSVLTVLHQDWLNGKAYACAVSNKALPAPIEKTISKAKGQPREPQVYTLPPSRDELTKNQVSLTCLVKGFYPSDIAVEWESNGQPENNYKTTPPVLDSDGSFFLYSKLTVDKSRWQQGNVFSCSVMHEALHNHYTQKSLSLSPGQRHNNSSLNTRTQKARHSPNSLPAQVAFTPYAPEPGSTCRLREYYDQTAQMCCSKCSPGQHAKVFCTKTSDTVCDSCEDSTYTQLWNWVPECLSCGSRCSSDQVETQACTREQNRICTCRPGWYCALSKQEGCRLCAPLRKCRPGFGVARPGTETSDVVCKPCAPGTFSNTTSSTDICRPHQICNVVAIPGNASMDAVCTSTSPTRSMAPGAVHLPQPVSTRSQHTQPTPEPSTAPSTSFLLPMGPSPPAEGSTGD
notes: also called Xceptor in the reverse orientation
Does B2 bind [1]?
Result: no binding

Does B2 bind [2]?
Result: binds

B3: TRU(XT6)-1019 (Fc fusion)
chain: LPAQVAFTPYAPEPGSTCRLREYYDQTAQMCCSKCSPGQHAKVFCTKTSDTVCDSCEDSTYTQLWNWVPECLSCGSRCSSDQVETQACTREQNRICTCRPGWYCALSKQEGCRLCAPLRKCRPGFGVARPGTETSDVVCKPCAPGTFSNTTSSTDICRPHQICNVVAIPGNASMDAVCTSTSPTRSMAPGAVHLPQPVSTRSQHTQPTPEPSTAPSTSFLLPMGPSPPAEGSTGDTGEPKSSDKTHTCPPCPAPEAAGAPSVFLFPPKPKDTLMISRTPEVTCVVVDVSHEDPEVKFNWYVDGVEVHNAKTKPREEQYNSTYRVVSVLTVLHQDWLNGKAYACAVSNKALPAPIEKTISKAKGQPREPQVYTLPPSRDELTKNQVSLTCLVKGFYPSDIAVEWESNGQPENNYKTTPPVLDSDGSFFLYSKLTVDKSRWQQGNVFSCSVMHEALHNHYTQKSLSLSPGQRHNNSSLNTRTQKARHSPNSEVQLLESGGGLVQPGGSLRLSCAASGFTFSWYLMHWVRQAPGKGLEWVSGIWPSGGHTLYADSVKGRFTISRDNSKNTLYLQMNSLRAEDTAVYYCAREPLLWFGELSYNWFDPWGQGTLVTVSSGGGGSGGGGSGGGGSQDIQMTQSPSSVSASVGDRVTITCRASQGISSWLAWYQQKPGKAPKLLIYAASSLQSGVPSRFSGSGSGTDFTLTISSLQPEDFATYYCQQANSFPLTFGGGTKVEIK
notes: as for B1
What does the source list for B3?
binding result [1]: no binding; binding result [2]: binds
